The results in this text go back to US20230399376A1 (BAKER HEART AND DIABETES INSTITUTE, published 2023).

In assay [1] the target is GPIIb/IIIa on non-activated (resting) human platelets (human, UniProt P08514 32-1039; P05106 27-788). The assay is described as follows: flow cytometry on human platelets, anti-Penta-His Alexa Fluor 488 detection. The protocol:
(§1) Binding of scFv-CD39 to activated human platelets was evaluated by flow cytometry: 0.1 mg/mL of scFv-CD39, 0.2 mg/mL of scFvₘᵤₜ-CD39 (both activity matched), and 0.038 mg/mL of anti-CD41 scFv (equimolar amount of the scFv in scFv-CD39) were tested.
(§2) Citrated blood from volunteers was centrifuged at 180 g for 10 minutes. The platelet-rich plasma (PRP) was collected and stored at 37° C. The remainder (infranatant) was centrifuged at 2500 g for 10 minutes, and its supernatant was collected as platelet-poor plasma (PPP).
(§3) PRP was diluted 1:20 in phosphate-buffered saline (PBS; 100 mg/L calcium chloride, 100 mg/L magnesium chloride). To investigate the binding of scFv-CD39 constructs, the diluted PRP ([…]) was either preincubated with a final concentration of […] ADP or […] of PBS for 15 minutes before addition of the constructs. The binding was then determined via a Penta-His Alexa Fluor-488-conjugated monoclonal antibody (Qiagen). To investigate the ecto-nucleoside triphosphate diphosphohydrolase efficiency, PRP was preincubated with scFv-CD39 constructs before administration of […] ADP. Platelet activation status was measured by a phycoerythrin (PE)-labeled anti-P-selectin antibody (BD Bioscience). Samples were fixed using […] Cellfix (BD Bioscience) and analyzed on a FACS Calibur (BD Bioscience).

For assay [2], the target named is T1, activated glycoprotein GPIIb/IIIa on ADP-activated human platelets (human, UniProt P08514 32-1039; P05106 27-788).
T1 construct: also called integrin alphaIIbbeta3
T1 sequence (P08514 32-1039 limits assumed, chain 1 of 2): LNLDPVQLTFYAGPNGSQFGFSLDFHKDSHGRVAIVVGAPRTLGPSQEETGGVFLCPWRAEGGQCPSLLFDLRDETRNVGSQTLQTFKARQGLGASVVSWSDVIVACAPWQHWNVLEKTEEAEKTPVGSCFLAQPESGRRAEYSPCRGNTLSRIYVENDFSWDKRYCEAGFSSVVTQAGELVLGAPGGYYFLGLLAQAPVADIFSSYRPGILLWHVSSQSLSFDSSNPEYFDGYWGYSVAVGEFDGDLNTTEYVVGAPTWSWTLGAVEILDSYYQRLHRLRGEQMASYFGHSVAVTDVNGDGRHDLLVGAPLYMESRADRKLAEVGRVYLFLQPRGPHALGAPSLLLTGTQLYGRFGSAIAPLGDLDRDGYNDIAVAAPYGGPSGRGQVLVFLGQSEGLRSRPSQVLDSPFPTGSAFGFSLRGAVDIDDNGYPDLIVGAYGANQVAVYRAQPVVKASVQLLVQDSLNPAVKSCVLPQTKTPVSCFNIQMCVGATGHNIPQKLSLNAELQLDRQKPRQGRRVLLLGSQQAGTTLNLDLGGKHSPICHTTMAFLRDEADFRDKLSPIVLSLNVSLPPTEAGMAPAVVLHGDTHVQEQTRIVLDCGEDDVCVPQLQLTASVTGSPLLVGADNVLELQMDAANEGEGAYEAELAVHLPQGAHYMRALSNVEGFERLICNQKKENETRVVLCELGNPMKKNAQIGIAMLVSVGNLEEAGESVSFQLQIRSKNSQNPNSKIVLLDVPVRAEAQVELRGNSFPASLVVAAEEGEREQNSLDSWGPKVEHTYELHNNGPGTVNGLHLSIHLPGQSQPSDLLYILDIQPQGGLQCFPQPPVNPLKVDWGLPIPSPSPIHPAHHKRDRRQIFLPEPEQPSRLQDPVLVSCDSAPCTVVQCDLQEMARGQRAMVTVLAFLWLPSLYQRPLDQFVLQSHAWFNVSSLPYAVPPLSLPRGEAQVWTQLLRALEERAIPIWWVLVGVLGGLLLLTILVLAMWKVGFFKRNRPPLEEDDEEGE
T1 sequence (P05106 27-788 limits assumed, chain 2 of 2): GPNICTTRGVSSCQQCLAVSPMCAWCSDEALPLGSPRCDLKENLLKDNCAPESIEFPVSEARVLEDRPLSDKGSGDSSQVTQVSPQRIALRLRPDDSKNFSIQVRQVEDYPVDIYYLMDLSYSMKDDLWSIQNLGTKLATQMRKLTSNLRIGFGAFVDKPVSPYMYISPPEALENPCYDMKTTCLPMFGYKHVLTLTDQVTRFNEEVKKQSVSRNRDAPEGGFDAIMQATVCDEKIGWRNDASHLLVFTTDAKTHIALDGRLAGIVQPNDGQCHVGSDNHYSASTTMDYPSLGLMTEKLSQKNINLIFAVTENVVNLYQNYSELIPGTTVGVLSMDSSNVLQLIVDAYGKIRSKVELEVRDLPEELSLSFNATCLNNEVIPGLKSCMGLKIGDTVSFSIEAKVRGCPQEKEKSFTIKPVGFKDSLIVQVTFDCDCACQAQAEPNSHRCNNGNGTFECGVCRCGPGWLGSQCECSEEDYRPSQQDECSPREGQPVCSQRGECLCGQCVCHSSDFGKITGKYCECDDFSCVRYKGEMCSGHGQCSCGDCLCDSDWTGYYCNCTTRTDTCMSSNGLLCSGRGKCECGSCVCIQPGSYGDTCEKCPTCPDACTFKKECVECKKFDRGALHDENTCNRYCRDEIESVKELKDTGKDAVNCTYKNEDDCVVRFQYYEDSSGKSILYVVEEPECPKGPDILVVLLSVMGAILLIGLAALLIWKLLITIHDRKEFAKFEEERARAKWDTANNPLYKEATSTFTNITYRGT
The assay is described as follows: flow cytometry on ADP-activated human platelets, anti-Penta-His Alexa Fluor 488 detection. Here is the method: as §1, §2, §3

Sequence of GPIIb/IIIa on non-activated (resting) human platelets (P08514 32-1039 limits assumed, chain 1 of 2): as the sequence (P08514 32-1039 limits assumed, chain 1 of 2) above
Sequence of GPIIb/IIIa on non-activated (resting) human platelets (P05106 27-788 limits assumed, chain 2 of 2): as the sequence (P05106 27-788 limits assumed, chain 2 of 2) above

B1: scFvmut-CD39 (scFv)
chain: HHHHHHHHRRAVRSLVPSSDPLQCGGILAEVQLVQSGAEVNKPGASVKVSCKASGYTFTGYYMHWVRQAPGQGLEWMGWINPNSGGTNYAQKFQGWVTMTRDTSISTAYMELSRLRSDDTAVYYCARGRALYNANDRSPNWFDPWGQGTLVTVSSGSASAPTLKLEEGEFSEARVQAVLTQPPSVSVAPGQTARITCGGNNIGSKSVQWYQQKPGQAPVLVVYDDSDRPSGIPERFSGSNSGNMATLTISRVEAGDEADYYCQVWDSSSDHVVFGGGTKLTVLGGKPIPNPLLGLDSTLPETGGLEEAAATQNKALPENVKYGIVLDAGSSHTSLYIYKWPAEKENDTGVVHQVEECRVKGPGISKFVQKVNEIGIYLTDCMERAREVIPRSQHQETPVYLGATAGMRLLRMESEELADRVLDVVERSLSNYPFDFQGARIITGQEEGAYGWITINYLLGKFSQKTRWFSIVPYETNNQETFGALDLGGASTQVTFVPQNQTIESPDNALQFRLYGKDYNVYTHSFLCYGKDQALWQKLAKDIQVASNEILRDPCFHPGYKKVVNVSDLYKTPCTKRFEMTLPFQQFEIQGIGNYQQCHQSILELFNTSYCPYSQCAFNGIFLPPLQGDFGAFSAFYFVMKFLNLTSEKVSQEKVTEMMKKFCAQPWEEIKTSYAGVKEKYLSEYCFSGTYILSLLLQGYHFTADSWEHIHFIGKIQGSDAGWTLGYMLNLTNMIPAEQPLSTPLSHSTTRGGPEQKLISEEDLNSAVDHHHHHH
notes: Non-targeting control construct; also called non-targ-CD39; Non-targCD39; not shown: 6xHis-tag used for detection
With B1, the binding result in assay [1] and in assay [2] was “no binding (tested: 0.2 mg/mL)” throughout.
